Experimental data as given in US10227617B2, “Sequestration of carbon dioxide with hydrogen to useful products” (UNIVERSITY OF GEORGIA RESEARCH FOUNDATION, INC., priority 2012, dated 2019).
In brackets after ≈: the same amount, converted by molar mass.

Key:
[1] = test system: CC(C)(COP(=O)(O)OP(=O)(O)OC[C@H]1O[C@@H](n2cnc3c(N)ncnc32)[C@H](O)[C@@H]1OP(=O)(O)O)[C@@H](O)C(=O)NCCC(=O)NCCSC(=O)CCCO; assay: 4-hydroxybutyryl-CoA dehydratase (Msed_1321), coupled spectrophotometric assay; type: biochemical, Metallosphaera sedula; details: other: Msed_1321, 70° C.
Text: A polypeptide having 4-hydroxybutyryl-CoA dehydratase activity means the polypeptide catalyzes the conversion of 4-hydroxybutyryl-CoA to crotonyl-CoA. The 4-hydroxybutyryl-CoA dehydratase activity of a polypeptide may be determined by routine methods known in the art. An example of such a polypeptide includes an amino acid sequence encoded by coding sequence Msed_1321 of Genbank accession NC_009440 and disclosed at SEQ ID NO:15.
Heterologous expression of M. sedula genes in E. coli. Msed_0406, Msed_1321, Msed_0399, and Msed_0656 were amplified from genomic DNA using primers from IDT Technologies (Coralville, Iowa). Msed_0406 was cloned into pET46-Ek/LIC with an N-terminal His6 tag, as described in Example 1. Msed_1321 was cloned with an N-terminal His6 tag into a modified pETA vector, into which the anaerobic hya promoter from E. coli had been inserted to allow for anaerobically-regulated expression (Sun et al., 2010. PLoS One 5:e10526). Msed_0399 was cloned into pET21b without a His-tag, and Msed_0656 was cloned into pCDF-Ek/LIC with an N-terminal His6 tag. All four constructs were individually cloned into NovaBlue GigaSingles E. coli competent cells and selected by growth on LB-agar supplemented with antibiotic. Sequences were confirmed by Eton Biosciences, Inc. (Durham, N.C.). Next, the plasmids were transformed into E. coli Rosetta 2 (DE3) cells for protein expression. Rosetta strains containing pET46-0406, pET21b-0399, and pCDF-0656 were grown and expressed aerobically at 37° C. for 16 h in Studier's auto-inducing medium ZYM-5052 (Studier, 2005. Protein Expression and Purification 41:207-234). Rosetta cells containing pETA-1321 plasmid were grown in a 2 L Applikon bioreactor (37° C., 800 rpm, pH 6.7, 0.5 slpm air) in Studier's non-inducing medium ZYM-505 with 0.5 mM FeCl3. […]
4-hydroxybutyryl-CoA dehydratase (Msed_1321). […] Enzyme activity was measured […] in a coupled spectrophotometric assay at 70° C. […]

[2] = 70° C and 1 atm; cited from earlier work
[3] = test system: O=C(O)CCCO; assay: acyl-CoA ligase activity of mutant Msed_1353-G424, discontinuous DTNB assay; type: biochemical, Metallosphaera sedula; details: other: Msed_1353-G424, 75° C., pH 7.9
Text: In one embodiment, an example of a polypeptide having 4-hydroxybutyrate:CoA ligase activity is an amino acid sequence encoded by coding sequence Msed_1353 of Genbank accession NC_009440 and disclosed at SEQ ID NO:18, provided that the amino acid at residue 424 is not the tryptophan present in a wild type Msed_1353. In one embodiment, the amino acid at residue 424 is alanine, valine, leucine, isoleucine, or glycine. In one embodiment, the amino acid at residue 424 is alanine, valine, leucine, glycine. In one embodiment, the amino acid at residue 424 is glycine. The amino acid sequence disclosed at SEQ ID NO:18 includes the substitution of glycine for tryptophan. Another example is a polypeptide having structural similarity to the amino acid sequence SEQ ID NO:18, provided the amino acid at residue 424 is not tryptophan.
Two assays were used to measure ligase activity, one spectrophotometric and one using high-performance liquid chromatography (HPLC). A discontinuous assay was used to measure substrate-dependent disappearance of CoA at 75° C. The reaction mixture (600 μl) contained 100 mM MOPS-KOH (pH 7.9), 5 mM MgCl2, 2.5 mM ATP, 0.15 mM CoA, and purified enzyme. At each time point, 80 μl of reaction mixture was added to 80 μl cold 5,5′-dithiobis-(2-nitrobenzoic acid) (DTNB). A time point (0 min) was taken before heating. The reaction mixture was incubated for 2 min at 75° C., followed by addition of substrate. Additional time points were taken at 30, 60, 90, 120, and 180 sec after addition of substrate. Absorbance was measured at 412 nm to determine free CoA concentration, based on the concentration of 2-nitro-5-thiobenzoate dianion (NTB^2−) (ε412=14,150 M^−1 cm^−1) (Hawkins et al., 2011, ACS Catal. 1, 1043-1050, Riddles et al., 1983, Methods in Enzymology 91, 49-60). Enzymes were kinetically characterized by varying the concentration of the […] substrate from 0.05 mM to 12 mM, while the other substrate concentrations were held constant. Measurements for specific activity were taken under saturating substrate concentrations (10 mM). Formation of the CoA ester was also confirmed using HPLC (Waters). The reaction mixture (0.15 ml) contained 100 mM potassium phosphate (pH 7.9), 10 mM MgCl2, 2 mM ATP, 0.5 mM CoA, 10 mM substrate, and purified enzyme. The reaction was incubated for 3 min at 75° C., quenched with 15 μl 1M HCl, filtered with a 10 kDa spin column (Amicon YM-10) to remove the protein, and loaded onto a reversed-phase C18 silica-based column (Shodex C18-4E, 4.6×250 mm). The mobile phase was 50 mM sodium phosphate buffer (pH 6.7) with 2% methanol.
M. sedula genes encoding acyl-CoA synthetases were amplified from genomic DNA using primers synthesized by Integrated DNA Technologies (Coralville, Iowa). […]

[4] = 4-hydroxybutyrate-CoA synthetase assay (DTNB; HPLC confirmation); type: biochemical
Procedure: A time point (0 min) was taken before heating.
The soluble, heat-treated lysate was loaded onto the column with binding buffer (50 mM sodium phosphate, 300 mM NaCl, 20 mM imidazole, pH 7.4) and the his-tagged enzyme removed with elution buffer (50 mM sodium phosphate, 300 mM NaCl, 500 mM imidazole, pH 7.4).

[5] = substrate: CCCCC(=O)O; assay: purified protein, by the assay type; details: other: Msed_0406, 75° C., pH 7.9; 75.0 °C
[6] = substrate: O=C(O)CCO; assay: purified protein, by the assay type; details: other: Msed_0406, 75° C., pH 7.9; 75.0 °C
Procedure: (§1) Two assays were used to measure ligase activity, one spectrophotometric and one using high-performance liquid chromatography (HPLC). A discontinuous assay was used to measure substrate-dependent disappearance of CoA at 75° C. The reaction mixture (600 μl) contained 100 mM MOPS-KOH (pH 7.9), 5 mM MgCl2, 2.5 mM ATP, 0.15 mM CoA, and purified enzyme. At each time point, 80 μl of reaction mixture was added to 80 μl cold 5,5′-dithiobis-(2-nitrobenzoic acid) (DTNB). A time point (0 min) was taken before heating. The reaction mixture was incubated for 2 min at 75° C., followed by addition of substrate. Additional time points were taken at 30, 60, 90, 120, and 180 sec after addition of substrate. Absorbance was measured at 412 nm to determine free CoA concentration, based on the concentration of 2-nitro-5-thiobenzoate dianion (NTB^2−) (ε412=14,150 M^−1 cm^−1) (Hawkins et al., 2011, ACS Catal. 1, 1043-1050, Riddles et al., 1983, Methods in Enzymology 91, 49-60). Enzymes were kinetically characterized by varying the concentration of the acyl-CoA substrate from 0.05 mM to 12 mM, while the other substrate concentrations were held constant. Measurements for specific activity were taken under saturating substrate concentrations (10 mM). Formation of the CoA ester was also confirmed using HPLC (Waters). The reaction mixture (0.15 ml) contained 100 mM potassium phosphate (pH 7.9), 10 mM MgCl2, 2 mM ATP, 0.5 mM CoA, 10 mM substrate, and purified enzyme. The reaction was incubated for 3 min at 75° C., quenched with 15 μl 1M HCl, filtered with a 10 kDa spin column (Amicon YM-10) to remove the protein, and loaded onto a reversed-phase C18 silica-based column (Shodex C18-4E, 4.6×250 mm). The mobile phase was 50 mM sodium phosphate buffer (pH 6.7) with 2% methanol.

[7] = substrate: CC(=O)O; assay: purified protein, by the assay type; details: other: Msed_0406, 75° C., pH 7.9; 75.0 °C
[8] = substrate: O=C(O)CCCO; assay: purified protein, by the assay type
Procedure: as §1

[9] = substrate: CCCC(=O)O; assay: purified protein, by the assay type; details: other: Msed_0406, 75° C., pH 7.9; 75.0 °C
Procedure: as §1

[10] = substrate: CCC(=O)O; assay: purified protein, by the assay type; details: other: Msed_0406, 75° C., pH 7.9; 75.0 °C
[11] = CoA synthetase assay (DTNB), substrate propionate; type: biochemical; details: saturating substrate concentrations
Procedure: Two assays were used to measure ligase activity, one spectrophotometric and one using high-performance liquid chromatography (HPLC). A discontinuous assay was used to measure substrate-dependent disappearance of CoA at 75° C. The reaction mixture (600 μl) contained 100 mM MOPS-KOH (pH 7.9), 5 mM MgCl2, 2.5 mM ATP, 0.15 mM CoA, and purified enzyme. At each time point, 80 μl of reaction mixture was added to 80 μl cold 5,5′-dithiobis-(2-nitrobenzoic acid) (DTNB). A time point (0 min) was taken before heating. The reaction mixture was incubated for 2 min at 75° C., followed by addition of substrate. Additional time points were taken at 30, 60, 90, 120, and 180 sec after addition of substrate. Absorbance was measured at 412 nm to determine free CoA concentration, based on the concentration of 2-nitro-5-thiobenzoate dianion (NTB^2−) (ε412=14,150 M^−1 cm^−1) (Hawkins et al., 2011, ACS Catal. 1, 1043-1050, Riddles et al., 1983, Methods in Enzymology 91, 49-60). Enzymes were kinetically characterized by varying the concentration of the acyl-CoA substrate from 0.05 mM to 12 mM, while the other substrate concentrations were held constant. Measurements for specific activity were taken under saturating substrate concentrations (10 mM). Formation of the CoA ester was also confirmed using HPLC (Waters). […]

[12] = other: Msed_0406, 75° C., pH 7.9, 75.0 °C

Molecule: Metallosphaera sedula 4-hydroxybutyryl-CoA dehydratase Msed_1321, SEQ ID NO:15, recombinant (Metallosphaera sedula DSM 5348)
- Km [1]: 150 µM
- Vmax [1]: 2.2 µmol/min/mg
- kcat [1]: 2.1 s⁻¹

Molecule: O=O [oxygen]
- solubility [2]: 600 µM (≈ 19.2 µg/mL)

Molecule: [HH] [hydrogen]
- solubility [2]: 600 µM (≈ 1.21 µg/mL)

Molecule: Metallosphaera sedula acetate/propionate synthetase Msed_1353 variant Msed_1353-G424 (Trp424 to Gly, W424G), SEQ ID NO:18 (Metallosphaera sedula DSM 5348; W424G)
- Km [3]: 1130 µM
- Vmax [3]: 2.3 µmol/min/mg
- kcat [3]: 2.5 s⁻¹
- kcat/Km [3]: 2180 M⁻¹ s⁻¹

B1: Metallosphaera sedula acyl-CoA synthetase (4-hydroxybutyrate:CoA ligase) Msed_0406, SEQ ID NO:14, recombinant (Metallosphaera sedula DSM 5348) (protein)
chain: MVTVQDFFRKFIEFQNSPNEKSLQEIVKLVGQLDLRRFNWVRDVFEDIHVKERGSKTALIWRDINTGEEAKLSYHELSLMSNRVLSTLRKHGLKKGDVVYLMTKVHPMHWAVFLAVIKGGFVMVPSATNLTVAEMKYRFSDLKPSAIISDSLRASVMEEALGSLKVEKFLIDGKRETWNSLEDESSNAEPEDTRGEDVIINYFTSGTTGMPKRVIHTAVSYPVGSITTASIVGVRESDLHLNLSATGWAKFAWSSFFSPLLVGATVVGINYEGKLDTRRYLGEVENLGVTSFCAPPTAWRQFITLDLDQFRFERLRSVVSAGEPLNPEVIKIWKDKFNLTIRDFYGQTETTAMVGNFPFLKVKPGSMGKPHPLYDIRLLDDEGKEITKPYEVGHITVKLNPRPIGLFLGYSDEKKNMESFREGYYYTGDKAYFDEEGYFYFVGRGDDVIKTSDYRVGPFEVESALLEHPAVAEAAVVGVPDTVRWQLVKAYIVLKKGYMPSKELAEEIREKMKTLLSPYKVPRIIEFVDELPKTISGKIRRVELRKREEEKRKKGEVGQNEYVF
- specific activity ([4]; 4HB, saturating substrate concentrations): 1.8 µmol/min/mg
- production of 4HB-CoA from 4HB and CoA ([4]; reversed-phase HPLC): confirmed
- rate of ligation of CoA to 4HB ([4]; substrate 4HB): 1.69 µmol·min/mg
- Km [5]: 740 µM
- Vmax [5]: 5.2 µmol/min/mg
- kcat [5]: 5.6 s⁻¹
- kcat/Km [5]: 7500 M⁻¹ s⁻¹
- Km [6]: 810 µM
- Vmax [6]: 2.4 µmol/min/mg
- kcat [6]: 2.6 s⁻¹
- kcat/Km [6]: 3200 M⁻¹ s⁻¹
- Km [7]: 2030 µM
- Vmax [7]: 6 µmol/min/mg
- kcat [7]: 6.4 s⁻¹
- kcat/Km [7]: 3200 M⁻¹ s⁻¹
- Km [8, 12]: 2000 µM
- Vmax [8, 12]: 1.7 µmol/min/mg
- kcat [8, 12]: 1.8 s⁻¹
- kcat/Km [8, 12]: 910 M⁻¹ s⁻¹
- Km ([8]; other: Msed_0406, text): 1900 µM
- Km [9]: 320 µM
- Vmax [9]: 7.9 µmol/min/mg
- kcat [9]: 8.4 s⁻¹
- kcat/Km [9]: 26000 M⁻¹ s⁻¹
- Km [10]: 380 µM
- Vmax [10]: 15.1 µmol/min/mg
- kcat [10]: 16.2 s⁻¹
- kcat/Km [10]: 43000 M⁻¹ s⁻¹
- specific activity [11]: 15.1 µmol/min/mg
